{
  "source": "paper PMC11218781",
  "about": "“The heat shock factor 20-HSF4-cellulose synthase A2 module regulates heat stress tolerance in maize”",
  "binders": {"B1": {"name": "ZmHSF4-P1 probe (dsDNA)", "DNA 1": "GCCTTCCAGAACCTTCCTTTCCCGAAATAG", "DNA 2": "CTATTTCGGGAAAGGAAGGTTCTGGAAGG"}, "B2": {"name": "ZmCesA2-P2 probe (dsDNA)", "DNA 1": "ATTTACTACTGAAATTTATAAGGATTTGCA", "DNA 2": "TGCAAATCCTTATAAATTTCAGTAGTAAAT"}},
  "key": {"ZmHSF20 [1]": {"target": "T1, ZmHSF20 (Zea mays, UniProt K7U5Y9 1-318)", "T1 sequence (K7U5Y9 entry or part of it)": "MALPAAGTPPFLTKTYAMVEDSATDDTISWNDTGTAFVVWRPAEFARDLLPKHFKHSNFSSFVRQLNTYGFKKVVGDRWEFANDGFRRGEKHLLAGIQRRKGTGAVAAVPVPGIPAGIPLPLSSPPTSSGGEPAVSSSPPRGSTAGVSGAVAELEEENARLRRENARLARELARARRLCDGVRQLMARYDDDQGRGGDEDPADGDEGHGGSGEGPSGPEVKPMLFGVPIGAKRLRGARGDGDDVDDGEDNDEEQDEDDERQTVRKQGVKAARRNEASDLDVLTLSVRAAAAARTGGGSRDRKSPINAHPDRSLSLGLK", "assay": "EMSA; EMSA/Gel-Shift buffer (Beyotime GS009 kit), 4 °C, 1 h; salt and pH not stated", "conditions": "protein: recombinant; tags: His (pET28a); chain copies: 3; label: biotin; 5' overhang 1 nt on strand 1 as printed (reverse strand lacks the final C)"}, "ZmHSF20 [2]": {"target": "T1, ZmHSF20", "assay": "EMSA; unlabeled probe competes; EMSA/Gel-Shift buffer (Beyotime GS009 kit), 4 °C, 1 h; salt and pH not stated", "conditions": "protein: recombinant; tags: His (pET28a); chain copies: 3; label: biotin; blunt"}},
  "data": [
    {"binder": "B1", "values": [
      {"measurement": "binding result", "setting": "ZmHSF20 [1]", "value": "binds"}
    ]},
    {"binder": "B2", "values": [
      {"measurement": "binding result", "setting": "ZmHSF20 [2]", "value": "binds"}
    ]}
  ]
}
